Data from patent publication US20230374148A1, “BINDING MOLECULES THAT MULTIMERISE CD45” (UCB BIOPHARMA SRL, priority 2020, published 2023).

Tests used:
[1] = tested on: M2 macrophages; assay: Caspase-3/7 induction, IncuCyte, M2; assay type: cell-based, human; conditions: over 6 days, BYbe 250-2 nM, Camptothecin, Staurosporine 5 μM
Description: Human PBMC derived from blood leukocyte platelet-apheresis cones (NHSBT Oxford) were banked as frozen aliquots. Prior to an assay being performed, 2 vials of frozen cells, each containing 5×10^7 cells in 1 ml, were thawed in a 37° C. water bath and then added to 50 ml complete media (RPMI 1640+2 mM GlutaMAX+1% Pen/Strep, all previous supplied by Invitrogen, +10% Fetal Bovine Serum (FBS), Sigma Aldrich). Cells were spun (500 g, 5 min, at RT) and re-suspended in 30 ml complete media to wash and spun again. Cells were resuspended in 20 ml MACS buffer (PBS, pH 7.2, 0.5% bovine serum albumin (BSA), and 2 mM EDTA, Sigma Aldrich) and counted on a ChemoMetec NucleoCounter NC-3000 to determine concentration and viability. PBMCs from one donor (UCB-Cones 802) was used in this assay. Monocyte isolation was performed using the Pan Monocyte Isolation Kit (Miltenyi Biotec, cat no. 130-096-537) and LS columns (Miltenyi Biotec, cat no 130-042-401) according to manufacturer's instructions. 100 μl of cells were removed and stored on ice to check monocyte purity post isolation. Isolated cells were stained with BV421 mouse anti-human CD14 (BD Biosciences, cat no. 563743) to check for purity of monocytes using FACS. M-CSF (Sigma Aldrich, cat no. SRP3110) and GM-CSF (R&D Systems, cat no. 215-GM/CF) were prepared at 100 μg/ml. Cells were prepared in M1 media (complete media+50 ng/ml GM-CSF) or M2 media (complete media+50 ng/ml M-CSF) at a concentration of 2.5×10^5 cells/ml. 200 μl cells were plated into two Corning 96 well Black polystyrene microplates (Sigma Aldrich) and incubated at 37° C., 5% CO2. Following a 3-day incubation at 37° C., 5% CO2, the plate was spun (500 g, 5 min, RT), buffer was aspirated, the cells were washed once with PBS and then resuspended in 200 μL of M1 media or M2 media. […] The caspase dye was measured with the green laser (350 ms) and the cytotox dye was measured with a red laser (650 ms). The green dye signal was analysed using Incucyte® Zoom2016B. […]

[2] = tested on: Human PBMC; assay: Apoptosis of PBMCs: reduction of PBMC cell subsets; assay type: cell-based; conditions: 24 hrs; for Bottom level of % subset cell reduction / Top level of % subset cell reduction: donor UCB Cone-802
Description: Human PBMC derived from blood leukocyte platelet-apheresis cones (NHSBT Oxford) were banked as frozen aliquots. Prior to an assay being performed, 2 vials of frozen cells, each containing 5×10^7 cells in 1 ml, were thawed in a 37° C. water bath and then added to 50 ml complete media (RPMI 1640+2 mM GlutaMAX+1% Pen/Strep, all previous supplied by Invitrogen, +10% Fetal Bovine Serum (FBS), Sigma Aldrich). Cells were spun (500 g, 5 min, at RT) and re-suspended in 30 ml complete media to wash and spun again. Cells were resuspended in 10 ml complete media and then counted using a ChemoMetec NucleoCounter NC-3000. 10^5 cells per well in 100 μl were then added to each well of a Corning Costar 96-well, cell culture treated, U-shaped-bottom microplate (cat no. 07-200-95). The plate was rested in a 37° C., 5% CO2 incubator for 2 hrs. PBMCs from two donors, UCB-Cones 801 and 802 were used in this assay.
Similarly, a 1500 nM stock of 4133-6294 BYbe in complete media was prepared. The microplate was incubated for 1 hr at 37° C., 5% CO2. Following the incubation, Fab-KD-Fab and BYbe reagents were then serially diluted in complete media 1 in 5, nine times to produce to form a 10-point dose curve.
Following the incubation, the plate was spun at 500 g, 5 min, RT, the buffer was aspirated with a BioTek ELx405 microplate washer, and the cells were re-suspended in FACS buffer (PBS+1% bovine serum albumin (BSA)+0.1% NaN3+2 mM EDTA, Sigma Aldrich) to wash and then re-spun and buffer was aspirated to leave the cells in 20 μl residual media. 20 μl of cell-specific marker antibody cocktail solution was added to the wells and incubated for 1 hr at 4° C. The antibody cocktail is detailed in Table 4 below.
Cells were analysed live using the Intellicyt iQue Screener PLUS. Live cell counts were extracted as metrics and graphical representations generated using Graphpad Prism version 8.1 (Graphpad). Asymmetric (five parameter) curve fitting was applied to derive maximal % cell reduction and EC50 values.

B1: 4133-6294 BYbe: anti-CD45 BYbe (Fab-scFv): 4133 Fab HC-G4S linker-6294 scFv heavy chain paired with 4133 light chain (antibody)
heavy: QEQLVESGGGLVQPEGSLTLTCTASGFSFSGNYYMCWVRQAPGKGLEWIGCLYTGSSGSTYYASWAKGRFTISKTSSTTVTLQMTSLTAADTATYFCARDLGYEIDGYGGLWGQGTLVTVSSGQPKAPSVFPLAPCCGDTPSSTVTLGCLVKGYLPEPVTVTWNSGTLTNGVRTFPSVRQSSGLYSLSSVVSVTSSSQPVTCNVAHPATNTKVDKTVAPSTCSKPGGGGSGGGGSEVQLVESGAELARPGASVKMSCKASGYTFTSYTMHWVKQRPGQCLEWIGYINPSSGYTEYNQKFKDKTTLTADKSSSTAYLQLSSLTSEDSAVYYCARVGDGFYPSWLAYWGQGTLVTVSSGGGGSGGGGSGGGGSGGGGSDIQMTQSPKFLLVSAGDRVTITCKASQSVRNDVAWYQQKPGQSPKLLIFYASKRYTGVPDRFTGSGYGTDFTFTISTVQAEDLAVYFCQQDYSSPTTFGCGTKLEIK
light: AQVLTQTPSPVSAVVGGTVSISCQASQSVYNNNNLSWYQQKPGQPPKLLIYDASKLASGVPSRFKGSGSGTQFTLTISGVQCDDAATYYCLGGYYSSGWYFAFGGGTKVVVKRTPVAPTVLIFPPAADQVATGTVTIVCVANKYFPDVTVTWEVDGTTQTTGIENSKTPQNSADCTYNLSSTLTLTSTQYNSHKEYTCKVTQGTTSVVQSFNRGDC
[1]
  levels of Caspase-3/7: in-line with NegCtrl BYbe-treated and untreated macrophages
[2]; B cells in PBMC, stated for both reagents
  almost maximal reductions in B cells: 87%
[2]; B cells
  Bottom level of % subset cell reduction: 18.74%
  Top level of % subset cell reduction: 87.09%
[2]; CD4+ Memory
  Bottom level of % subset cell reduction: 24%
  Top level of % subset cell reduction: 99.76%
[2]; CD4+ Naive
  Bottom level of % subset cell reduction: 18.53%
  Top level of % subset cell reduction: 99.04%
[2]; CD4+
  Bottom level of % subset cell reduction: 20.22%
  Top level of % subset cell reduction: 99.2%
[2]; CD8+
  Bottom level of % subset cell reduction: 0.543%
  Top level of % subset cell reduction: 98.36%
